Experiment in all cases: cell-based or functional assay
The target in test [1] is Jagged-1 expressed on mouse GM-BMDCs (mouse) (UniProt Q9QXX0).
Test [2] deals with OX40L expressed on mouse GM-BMDCs (mouse) (UniProt P43488).
In test [3] the target is Notch 3 expressed on mouse T-cells (Tregs) (mouse) (UniProt Q61982).
Sequence of UniProt Q61982 (Q61982 40-2318): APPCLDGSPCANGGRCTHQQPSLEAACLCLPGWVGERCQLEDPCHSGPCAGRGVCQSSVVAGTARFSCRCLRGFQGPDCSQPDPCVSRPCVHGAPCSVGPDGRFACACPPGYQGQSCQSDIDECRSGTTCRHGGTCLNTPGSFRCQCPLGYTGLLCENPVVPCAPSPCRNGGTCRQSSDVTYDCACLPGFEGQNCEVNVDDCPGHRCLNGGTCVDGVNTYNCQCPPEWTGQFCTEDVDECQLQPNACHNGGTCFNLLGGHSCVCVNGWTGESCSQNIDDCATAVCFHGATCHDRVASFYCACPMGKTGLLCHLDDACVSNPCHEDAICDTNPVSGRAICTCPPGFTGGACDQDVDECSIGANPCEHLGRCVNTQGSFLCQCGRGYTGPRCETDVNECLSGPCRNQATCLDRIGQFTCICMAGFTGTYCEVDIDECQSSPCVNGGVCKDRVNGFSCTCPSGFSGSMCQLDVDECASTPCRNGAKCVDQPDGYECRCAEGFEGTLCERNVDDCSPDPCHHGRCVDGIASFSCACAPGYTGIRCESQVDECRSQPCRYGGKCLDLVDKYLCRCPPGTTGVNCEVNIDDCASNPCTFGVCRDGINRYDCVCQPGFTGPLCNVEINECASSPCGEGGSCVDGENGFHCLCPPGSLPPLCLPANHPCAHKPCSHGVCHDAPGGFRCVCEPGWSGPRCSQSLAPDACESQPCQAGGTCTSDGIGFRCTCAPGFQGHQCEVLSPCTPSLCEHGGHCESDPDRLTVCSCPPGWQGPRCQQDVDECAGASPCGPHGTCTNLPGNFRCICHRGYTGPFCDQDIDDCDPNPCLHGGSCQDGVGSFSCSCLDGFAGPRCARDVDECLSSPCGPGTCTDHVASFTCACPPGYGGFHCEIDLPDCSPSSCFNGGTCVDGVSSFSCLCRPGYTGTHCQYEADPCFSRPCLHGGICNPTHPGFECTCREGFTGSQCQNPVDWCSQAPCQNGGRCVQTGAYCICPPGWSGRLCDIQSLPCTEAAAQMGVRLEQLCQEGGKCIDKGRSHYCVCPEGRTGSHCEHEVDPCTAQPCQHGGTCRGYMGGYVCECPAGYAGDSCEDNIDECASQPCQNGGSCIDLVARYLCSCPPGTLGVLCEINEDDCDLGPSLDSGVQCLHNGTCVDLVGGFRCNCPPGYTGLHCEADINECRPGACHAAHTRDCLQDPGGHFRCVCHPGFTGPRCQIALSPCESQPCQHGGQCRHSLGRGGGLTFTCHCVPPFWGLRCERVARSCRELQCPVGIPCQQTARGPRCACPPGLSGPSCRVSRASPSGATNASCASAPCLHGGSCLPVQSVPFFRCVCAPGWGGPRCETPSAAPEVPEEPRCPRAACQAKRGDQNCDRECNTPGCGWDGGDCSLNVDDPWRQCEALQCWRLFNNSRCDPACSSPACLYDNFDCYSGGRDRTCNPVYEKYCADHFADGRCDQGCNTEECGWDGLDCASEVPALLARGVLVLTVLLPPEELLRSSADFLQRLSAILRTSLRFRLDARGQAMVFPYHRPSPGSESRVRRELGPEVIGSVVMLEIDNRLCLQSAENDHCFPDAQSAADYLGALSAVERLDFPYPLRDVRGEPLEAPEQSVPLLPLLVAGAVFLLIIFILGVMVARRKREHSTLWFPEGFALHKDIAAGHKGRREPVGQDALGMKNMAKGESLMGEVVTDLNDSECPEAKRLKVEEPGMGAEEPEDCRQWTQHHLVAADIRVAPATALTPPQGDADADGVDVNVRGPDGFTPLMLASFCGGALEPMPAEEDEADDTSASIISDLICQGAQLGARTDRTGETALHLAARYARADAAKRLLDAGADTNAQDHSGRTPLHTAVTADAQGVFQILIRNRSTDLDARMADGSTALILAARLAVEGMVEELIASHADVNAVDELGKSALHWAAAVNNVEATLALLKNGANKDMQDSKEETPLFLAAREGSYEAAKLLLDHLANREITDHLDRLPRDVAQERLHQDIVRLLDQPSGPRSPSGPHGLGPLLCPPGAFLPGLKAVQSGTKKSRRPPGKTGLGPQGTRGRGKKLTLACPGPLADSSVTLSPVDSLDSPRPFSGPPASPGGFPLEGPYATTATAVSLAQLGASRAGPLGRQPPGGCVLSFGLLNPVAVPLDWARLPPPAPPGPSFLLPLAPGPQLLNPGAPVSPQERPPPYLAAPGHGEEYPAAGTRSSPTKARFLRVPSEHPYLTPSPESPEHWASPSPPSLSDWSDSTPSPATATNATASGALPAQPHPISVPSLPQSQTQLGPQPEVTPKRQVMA

Sequence of UniProt P43488 (P43488 whole entry): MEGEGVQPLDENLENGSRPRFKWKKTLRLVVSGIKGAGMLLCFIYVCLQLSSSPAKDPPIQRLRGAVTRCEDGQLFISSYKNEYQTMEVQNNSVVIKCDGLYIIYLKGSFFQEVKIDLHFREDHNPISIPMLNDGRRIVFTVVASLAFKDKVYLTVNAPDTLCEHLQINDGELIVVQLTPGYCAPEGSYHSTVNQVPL
Sequence of UniProt Q9QXX0 (Q9QXX0 34-1218): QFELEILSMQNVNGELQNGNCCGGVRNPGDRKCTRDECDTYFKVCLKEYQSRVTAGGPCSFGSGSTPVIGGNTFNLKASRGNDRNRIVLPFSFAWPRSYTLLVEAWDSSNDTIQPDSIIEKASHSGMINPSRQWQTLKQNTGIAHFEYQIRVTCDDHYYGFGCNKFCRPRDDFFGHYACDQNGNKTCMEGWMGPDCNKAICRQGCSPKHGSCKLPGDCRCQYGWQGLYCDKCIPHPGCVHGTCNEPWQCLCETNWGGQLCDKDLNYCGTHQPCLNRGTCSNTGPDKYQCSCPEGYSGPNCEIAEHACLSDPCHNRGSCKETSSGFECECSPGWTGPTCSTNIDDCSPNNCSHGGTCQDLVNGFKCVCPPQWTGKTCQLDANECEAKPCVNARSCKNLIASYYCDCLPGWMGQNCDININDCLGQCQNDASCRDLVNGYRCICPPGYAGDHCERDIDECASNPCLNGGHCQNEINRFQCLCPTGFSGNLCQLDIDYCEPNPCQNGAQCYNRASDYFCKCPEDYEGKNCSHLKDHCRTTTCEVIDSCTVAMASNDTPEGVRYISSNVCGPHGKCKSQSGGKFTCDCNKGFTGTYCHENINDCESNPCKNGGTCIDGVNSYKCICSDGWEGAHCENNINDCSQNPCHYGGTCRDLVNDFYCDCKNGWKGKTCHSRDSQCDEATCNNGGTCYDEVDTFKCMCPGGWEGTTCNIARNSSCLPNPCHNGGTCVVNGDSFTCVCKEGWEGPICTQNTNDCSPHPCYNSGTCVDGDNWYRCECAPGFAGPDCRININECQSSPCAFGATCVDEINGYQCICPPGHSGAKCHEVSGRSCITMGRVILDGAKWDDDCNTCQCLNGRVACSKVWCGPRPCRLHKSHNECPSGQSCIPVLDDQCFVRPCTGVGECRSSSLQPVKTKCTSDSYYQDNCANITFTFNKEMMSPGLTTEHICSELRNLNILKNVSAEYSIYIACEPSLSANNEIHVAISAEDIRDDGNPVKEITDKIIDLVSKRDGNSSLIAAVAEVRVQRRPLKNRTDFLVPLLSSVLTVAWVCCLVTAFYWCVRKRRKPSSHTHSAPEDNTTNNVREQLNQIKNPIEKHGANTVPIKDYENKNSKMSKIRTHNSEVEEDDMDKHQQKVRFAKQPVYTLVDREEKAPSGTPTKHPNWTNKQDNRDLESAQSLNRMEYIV

For the substance “Blocking antibody to Jagged-1 (AF599, R&D systems)”, the Treg proliferation (%) in GM-BMDC/CD4+ T-cell co-culture with anti-Jagged-1-Hi (13.0% without antibody) in test [1] is 5.3%.
Regarding “Blocking antibody to OX40L (AF1236, R&D systems)”, the Treg proliferation (%) in GM-BMDC/CD4+ T-cell co-culture with anti-OX40L-Hi (13.0% without antibody) in test [2] came out at 3.7%.
As to “Jagged-1 expressed on mouse GM-BMDCs (from UniProt Q9QXX0 34-1218) (ligand)”, the Proliferating Foxp3+ T cells positive for Notch 3 NICD in GM-BMDC/T-cell co-cultures (FACS) in test [3] amounted to 97%.

The record behind these values is patent US20180119100A1.
